For this test, the target named is microtubules (MTs) polymerised from purified tubulin (Cytoskeleton, # T240) (UniProt P02550).

Our source for the MT-polymerization (turbidity values is publication PMC6441084.

For “Diaph2 mutant lacking the FH2-domain (ΔFH2-Diaph2), GST-fusion protein (from UniProt O60879 1-1101) (natural protein)”, the MT-polymerization (turbidity at 340 nm, no taxol; 2 µM tubulin, 0.2 µM Diaph2 protein), fold against the control came to 6 fold.
